In US20180244785A1 (MERRIMACK PHARMACEUTICALS, published 2018):

B1: Ab7 (scFv format) (scFv)
scFv: QVQLVESGGGVVQPGRSLRLSCAASGFTFSGYAIHWVRQAPGKGLEWVALISYDGSNKYYADSAKGRFTISRDNSKNTLSLQMNSLRVEDTAIYYCVRGAGRGYTYGPDGFDIWGQGTMVTVSSASTGGGGSGGGGSGGGGSGGGGSDIVMTQTPLSSPVTLGQPASISCRSSESLVYRDGNTYLSWLHQRPGQSPRLLIYKVSNRFSGVPDRFSGSGAGTDFTLKISRVEAEDVGVYFCMQATQFPWTFGQGTKVEIKRTVAAPSHHHHHH
notes: also called FGF#51
B2: Ab3 (scFv format) (scFv)
scFv: EVQLVESGGGVVQPGRSLRLSCAASGFTFSQYSMHWVRQSPGKGLEWVTLISFDGADKYYADSVKGRFTISRDNSNDTLFLHMNGLRVEDTAIYYCVRGAGRGYTYGPDGFDIWGQGTMVTVSSASTGGGGSGGGGSGGGGSGGGGSDIQLTQSPSSLSASVGDRVTITCRTSQTISRYLNWYQQQPGKAPKLLIYTATSLQSGVPSRFSGSGSGTDFTLTIGGLQPEDFAIYFCQQTYSAPLTFGGGTKVEIKRTVAAPSHHHHHH
notes: also called FGF#78
B3: Ab4 (scFv format) (scFv)
scFv: EVQLLESGGGVVQPGRSLRLSCAASGFTFSSYAMHWVRQAPGKGLEWVALISYDGSNKYYADSVKGRFTISRDNSKNTLYLQMNSLRAEDTAIYYCVRGAGRGYTYGPDGFDIWGQGTMVTVSSASTGGGSGGGGSDIVMTQTPLSLSVTPGQPASIFCKSSQSLIFGDGKTYLYWYLQKPGQPPRLLIYQVSNRFSGVPDRFSGSGAGTDFTLKISRVEAEDVGVYYCMQAKQFPWTFGQGTKLEIKRTVAAPSHHHHHH
notes: also called FGF#10
B4: Ab14 (scFv format) (scFv)
scFv: EVQLVETGGGLIQPGGSLRLSCVASGFTVSSNYMSWVRQAPGKGLEWVSVIFSDGTTYYADSVKGRFTISRDNSKNTLYLQMNSLKTEDTAVYYCVAGPANGAYDIWGQGTMVTVSSASTGGGSGGGGSNIQMTQSPSILSASVGDRVTITCRASQSISNWLAWYQQKPGKAPKLLIFRASTLESGVPSRFSGSGSGAEFNLTISSLQPDDFATYYCQQYNVYSGTFGQGTKVEIKRTVAAPSHHHHHH
notes: also called FGF#24
B5: Ab92 (antibody, human IgG2, kappa, V domains shown)
VH: EVQLLESGGGVVQPGRSLRLSCAASGFTFSSYAMHWVRQAPGKGLEWVAVISYDGSNKYYADSVKGRFTISRDNSKNTLSLQMNSLRVEDTAIYYCVRGAGHGFPTGPDGFDIWGQGTMVTVSS
VL: DIVMTQTPLSLSVTPGQPASISCRSSRSLLHSDGKTYVYWYVQKSGQPPQLLIYELSNRFSGVPDRFSGSGSRTDFTLKISRVEAEDVGVYYCMQYVEAPLTFGGGTKVEIKR
notes: format in the assays not spelled out
B6: Ab15 (scFv format) (scFv)
scFv: EVQLLESGGGVVQPGRSLRLSCAASGFTFSSYAMHWVRQAPGKGLEWVAVISYDGSNKYYADSVKGRFTISRDNSKNTLSLQMNSLRVEDTAIYYCVRGAGRGYTYGPDGFDIWGQGTMVTVSSASTGGGGSGGGGSGGGGSGGGGSDIVMTQTPLSLSVTPGQPASISCTSSRSLLHSDGKTYVYWYVQKSGQPPQLLIYELSNRFSGVPDRFSGSGSRTDFTLKISRVEAEDVGVYYCMQYIEAPLTFGGGTKVEIKRTVAAPSHHHHHH
notes: also called FGF#26

Tests used:
[1] = biological target: T1, recombinant human FGFR1c Fc fusion (human, UniProt P11362 141-376); assay: ELISA, scFv on coated FGFR-Fc
T1 construct: also called FGFR1IIIc; not shown: Fc part of the FGFR-Fc fusion
T1 sequence: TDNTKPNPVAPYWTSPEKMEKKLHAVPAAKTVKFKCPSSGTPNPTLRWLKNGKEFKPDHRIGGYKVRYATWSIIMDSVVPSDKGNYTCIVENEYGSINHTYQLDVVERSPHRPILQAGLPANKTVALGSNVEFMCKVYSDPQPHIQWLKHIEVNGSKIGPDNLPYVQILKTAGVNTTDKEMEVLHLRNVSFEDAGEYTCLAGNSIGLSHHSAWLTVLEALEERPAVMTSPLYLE
Protocol: (§1) To characterize the novel anti-FGFR antibodies, their relative ability to bind to each individual FGFR in vitro was compared. A solid phase-based ELISA was used to measure the relative binding of the candidate antibodies to immobilized recombinant human FGFR1c, FGFR2c, FGFR3c, and FGFR4. EC50 binding curves were generated for a subset of candidates (FIGS. 3A-3D, respectively; Table 1).
(§2) For the ELISA assay, the ability of each mAb to cross react with the […] FGF receptors was tested across a concentration curve in order to determine the relative binding across FGFR1-4. FGFR2IIIb was used as a negative control. Black 384-well Maxisorp plates were coated overnight with FGFR-Fc fusions in PBS to 1 ug/ml before washing and blocking with 75 ul/well Pierce Protein Free (PBS) Blocking Buffer for 1 hour at RT. Antibody dilutions were prepared freshly in 1% BSA- PBS+0.05% Tween20 and 25 ul of each antibody was added to wells in duplicate. Plates were incubated at RT for 2 hours, followed by addition of detection antibody at 50 ng/ml in 1% BSA PBS, 0.05% Tween20. ECL substrate (Pierce) was added and plates were read on the EnVision plate reader.

[2] = biological target: T2, recombinant human FGFR2c Fc fusion (human, UniProt P21802 148-377); assay: ELISA, scFv on coated FGFR-Fc
T2 construct: also called FGFR2IIIc; not shown: Fc part of the FGFR-Fc fusion
T2 sequence (P21802 148-377): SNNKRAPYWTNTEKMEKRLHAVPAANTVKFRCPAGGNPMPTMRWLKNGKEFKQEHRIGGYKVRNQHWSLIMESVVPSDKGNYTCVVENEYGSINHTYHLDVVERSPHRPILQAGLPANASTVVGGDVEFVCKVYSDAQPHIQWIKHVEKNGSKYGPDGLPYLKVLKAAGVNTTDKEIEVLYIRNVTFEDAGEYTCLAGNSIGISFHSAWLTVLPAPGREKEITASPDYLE
Protocol: as §1, §2

[3] = biological target: T3, recombinant human FGFR3c Fc fusion (human, UniProt P22607 141-372); assay: ELISA, scFv on coated FGFR-Fc
T3 construct: also called FGFR3IIIc; not shown: Fc part of the FGFR-Fc fusion
T3 sequence: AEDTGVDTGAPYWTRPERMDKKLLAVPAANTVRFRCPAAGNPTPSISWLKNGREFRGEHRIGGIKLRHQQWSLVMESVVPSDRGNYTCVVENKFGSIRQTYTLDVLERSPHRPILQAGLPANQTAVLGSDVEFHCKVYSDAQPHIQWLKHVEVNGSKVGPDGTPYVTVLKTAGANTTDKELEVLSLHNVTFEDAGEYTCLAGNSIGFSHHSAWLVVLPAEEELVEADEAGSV
Protocol: as §1, §2

[4] = biological target: T4, recombinant human FGFR4 Fc fusion (human, UniProt P22455 144-369); assay: ELISA, scFv on coated FGFR-Fc
T4 construct: 19 used; also called FGFR4c; not shown: Fc part of the FGFR-Fc fusion
T4 sequence: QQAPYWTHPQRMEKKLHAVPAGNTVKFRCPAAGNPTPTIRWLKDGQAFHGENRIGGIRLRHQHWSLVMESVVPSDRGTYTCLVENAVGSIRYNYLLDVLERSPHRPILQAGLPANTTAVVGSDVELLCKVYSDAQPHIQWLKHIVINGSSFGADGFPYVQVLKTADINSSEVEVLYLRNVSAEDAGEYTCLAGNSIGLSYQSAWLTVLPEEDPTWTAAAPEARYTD
Protocol: as §1, §2

[5] = biological target: T5, FGFR2IIIb Fc fusion (negative control) (human); assay: ELISA, scFv on coated FGFR-Fc
T5 construct: also called FGFR2b; not shown: Fc part of the FGFR-Fc fusion
T5 chain: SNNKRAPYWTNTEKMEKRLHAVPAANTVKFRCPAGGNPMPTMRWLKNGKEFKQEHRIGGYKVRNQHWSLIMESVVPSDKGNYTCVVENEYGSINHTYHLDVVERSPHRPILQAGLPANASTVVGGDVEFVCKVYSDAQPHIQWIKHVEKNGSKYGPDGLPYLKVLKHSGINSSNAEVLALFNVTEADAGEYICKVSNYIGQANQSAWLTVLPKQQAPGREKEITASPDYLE
Protocol: as §1, §2

FGFR1 on tumour cells = FGFR1 on tumour cells (UniProt P11362 22-822); assay: cell-based or functional assay
Sequence of FGFR1 on tumour cells (P11362 22-822): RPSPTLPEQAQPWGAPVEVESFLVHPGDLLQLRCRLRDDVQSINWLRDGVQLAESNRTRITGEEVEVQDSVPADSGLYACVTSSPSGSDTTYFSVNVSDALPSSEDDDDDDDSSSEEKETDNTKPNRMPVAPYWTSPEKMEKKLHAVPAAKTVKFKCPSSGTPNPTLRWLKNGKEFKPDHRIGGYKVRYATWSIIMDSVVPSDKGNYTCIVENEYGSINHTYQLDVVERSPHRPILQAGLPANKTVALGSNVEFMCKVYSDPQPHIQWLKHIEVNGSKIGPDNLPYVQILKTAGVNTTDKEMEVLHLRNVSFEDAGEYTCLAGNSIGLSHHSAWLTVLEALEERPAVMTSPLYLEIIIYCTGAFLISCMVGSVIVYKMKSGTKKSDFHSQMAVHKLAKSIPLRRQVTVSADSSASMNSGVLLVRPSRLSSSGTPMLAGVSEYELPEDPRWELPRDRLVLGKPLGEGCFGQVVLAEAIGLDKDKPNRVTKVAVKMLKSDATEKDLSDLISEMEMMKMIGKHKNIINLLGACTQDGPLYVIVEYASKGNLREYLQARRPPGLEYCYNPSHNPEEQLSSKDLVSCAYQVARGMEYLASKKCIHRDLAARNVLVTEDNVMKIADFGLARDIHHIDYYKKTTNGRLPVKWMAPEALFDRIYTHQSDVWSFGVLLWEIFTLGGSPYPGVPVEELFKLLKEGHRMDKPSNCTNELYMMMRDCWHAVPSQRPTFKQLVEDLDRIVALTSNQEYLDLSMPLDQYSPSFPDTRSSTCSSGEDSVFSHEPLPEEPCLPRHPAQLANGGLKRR

[6] = biological target: T1, recombinant human FGFR1c Fc fusion; assay: solid phase ELISA on coated FGFR-Fc
Protocol: as §2

[7] = biological target: T2, recombinant human FGFR2c Fc fusion; assay: solid phase ELISA on coated FGFR-Fc
Protocol: as §2

[8] = biological target: T3, recombinant human FGFR3c Fc fusion; assay: solid phase ELISA on coated FGFR-Fc
Protocol: as §2

[9] = biological target: T4, recombinant human FGFR4 Fc fusion; assay: solid phase ELISA on coated FGFR-Fc
Protocol: as §2

[10] = biological target: T6, soluble FGFR3c receptor protein (human, UniProt P22607 141-372); assay: BLI Octet RED96, antibody on anti-hIgG Fc tip
T6 sequence: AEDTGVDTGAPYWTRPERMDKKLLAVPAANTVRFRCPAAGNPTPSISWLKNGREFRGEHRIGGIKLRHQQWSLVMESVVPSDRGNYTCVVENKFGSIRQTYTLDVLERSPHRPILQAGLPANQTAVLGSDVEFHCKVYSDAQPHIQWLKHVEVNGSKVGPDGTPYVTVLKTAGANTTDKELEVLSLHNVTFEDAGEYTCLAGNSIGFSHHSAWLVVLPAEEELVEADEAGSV
Method in brief: (§3)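 Bio-layer interferometry: antibodies captured on anti-human IgG Fc tips for 120 s, PBS baseline 60 s, then 300 s association with soluble receptor and 600 s dissociation in PBS. Antibodies and receptors prepared at 300 nM in PBS; kinetics fitted to a 1:1 binding model.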

[11] = biological target: T7, soluble FGFR4 receptor protein (human, UniProt P22455 144-369); assay: BLI Octet RED96, antibody on anti-hIgG Fc tip
T7 sequence: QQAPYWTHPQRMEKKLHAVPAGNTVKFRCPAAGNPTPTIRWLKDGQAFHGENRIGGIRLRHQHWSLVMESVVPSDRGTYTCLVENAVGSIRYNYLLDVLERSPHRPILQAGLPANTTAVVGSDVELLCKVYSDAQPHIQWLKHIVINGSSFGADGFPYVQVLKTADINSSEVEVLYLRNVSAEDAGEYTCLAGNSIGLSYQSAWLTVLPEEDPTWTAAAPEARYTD
Method in brief: as §3

[12] = biological target: T8, soluble FGFR1c receptor protein (human, UniProt P11362 141-376); assay: BLI Octet RED96, antibody on anti-hIgG Fc tip
T8 sequence: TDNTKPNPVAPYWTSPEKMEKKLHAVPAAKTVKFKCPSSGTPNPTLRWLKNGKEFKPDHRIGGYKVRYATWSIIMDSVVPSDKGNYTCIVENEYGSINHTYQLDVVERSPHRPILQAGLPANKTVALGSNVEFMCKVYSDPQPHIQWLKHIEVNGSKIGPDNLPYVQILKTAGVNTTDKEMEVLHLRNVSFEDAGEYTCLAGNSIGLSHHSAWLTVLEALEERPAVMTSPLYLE
Method in brief: as §3

[13] = biological target: soluble FGFR2c receptor protein (human, UniProt P21802 148-377); assay: BLI Octet RED96, antibody on anti-hIgG Fc tip
Sequence of soluble FGFR2c receptor protein (P21802 148-377): as the sequence (P21802 148-377) above
Method in brief: as §3

6His-Fc-FGFR4 = biological target: T9, 6His-Fc-FGFR4 (human, UniProt P22455 144-369); assay: competition ELISA, blocks 6His-Fc-FGFR4 binding to coated FGF2
T9 construct: not shown: 6His tag and Fc as named in '6His-Fc-FGFR'
T9 sequence: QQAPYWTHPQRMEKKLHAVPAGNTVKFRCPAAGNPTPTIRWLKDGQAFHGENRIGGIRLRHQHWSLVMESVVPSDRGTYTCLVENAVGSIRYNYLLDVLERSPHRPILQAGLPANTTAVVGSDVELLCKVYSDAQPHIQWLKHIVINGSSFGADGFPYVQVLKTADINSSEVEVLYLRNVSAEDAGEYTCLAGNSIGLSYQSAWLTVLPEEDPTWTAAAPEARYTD
Method in brief: (§4)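 Heparin sulfate-coated, BSA-blocked plates loaded with FGF2 at 40 μg/ml for 2 h. Antibody 2×-dilution series mixed 1:1 with 6His-Fc-FGFR (500 ng/ml stock), bound 2 h at room temperature; remaining receptor detected with anti-His-HRP and chemiluminescence, background corrected.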

6His-Fc-FGFR1c = biological target: T10, 6His-Fc-FGFR1c (human, UniProt P11362 141-376); assay: competition ELISA, blocks 6His-Fc-FGFR1c binding to coated FGF2
T10 construct: not shown: 6His tag and Fc as named in '6His-Fc-FGFR'
T10 sequence: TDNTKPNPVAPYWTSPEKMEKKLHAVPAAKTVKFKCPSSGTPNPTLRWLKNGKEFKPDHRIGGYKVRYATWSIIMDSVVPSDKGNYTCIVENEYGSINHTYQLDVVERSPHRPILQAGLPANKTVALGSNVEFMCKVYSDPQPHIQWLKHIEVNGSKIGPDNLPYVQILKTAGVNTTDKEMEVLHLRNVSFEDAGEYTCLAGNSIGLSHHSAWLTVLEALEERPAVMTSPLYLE
Method in brief: as §4

Row | Binder | EC50 [1] [nM] | EC50 [2] [nM] | EC50 [3] [nM] | EC50 [4] [nM] | EC50 [5] [nM] | also measured
1 | B1 | 0.201 | 1.47 | 1.36 | 0.278 | ~96700 | –
2 | B2 | 0.319 | 0.62 | 2.02 | 1.07 | ~108000 | –
3 | B3 | 0.247 | – | 25.9 | 0.506 | – | –
4 | B4 | 129 | 75.7 | 77.2 | 72 | ~557000 | –
5 | B5 | – | – | – | – | – | IC50 of pERK inhibition (AlphaScreen SureFire) in NCI-H1581 cells (FGFR1 on tumour cells): 1.91 nM; EC50 [6]: 0.0242 nM; EC50 [7]: 0.0325 nM; EC50 [8]: 0.264 nM; EC50 [9]: 13.1 nM; Kd [10]: 37.6 nM; koff [10]: 0.00286 s⁻¹; kon [10]: 75600 M⁻¹ s⁻¹; Kd [11]: 40.3 nM; koff [11]: 0.00248 s⁻¹; kon [11]: 60600 M⁻¹ s⁻¹; Kd [12]: 20 nM; koff [12]: 0.00129 s⁻¹; kon [12]: 57000 M⁻¹ s⁻¹; Kd [13]: 8.75 nM; koff [13]: 0.00142 s⁻¹; kon [13]: 147000 M⁻¹ s⁻¹; IC50 (6His-Fc-FGFR4): 14 nM; IC50 (6His-Fc-FGFR1c): 4.16 nM
6 | B6 | 0.293 | 0.247 | 0.326 | 0.312 | ~80000 | –
